Assay results published in US20090202520A1.

Biological target: soluble recombinant FcγRIIIB (sFcγRIIIB) (UniProt O75015)
Assay: SPR, comparison of SAP and CRP affinities

Chain of soluble recombinant FcγRIIIB (sFcγRIIIB) (O75015 17-200): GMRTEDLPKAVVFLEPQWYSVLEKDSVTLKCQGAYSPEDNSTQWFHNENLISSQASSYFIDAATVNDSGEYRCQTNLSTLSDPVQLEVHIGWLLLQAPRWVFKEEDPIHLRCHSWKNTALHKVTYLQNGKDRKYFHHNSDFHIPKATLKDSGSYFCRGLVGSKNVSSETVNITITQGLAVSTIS

fold affinity of SAP over CRP for the same receptor: 1000 fold
Substance: serum amyloid P (SAP) (from UniProt P02743 20-223) (ligand; other documents disagree on this pair)
